Data taken from the RNAGym collection of RNA variant scans (doi:10.7554/elife.90254).

B1: LINE1-full (parent)
chain: UACGUAGGUGGUUUUCCCCUGAUAGUGCUAAGGGGGCCUGGAAGUUUGGACUGGGCAGAGCUCAACACAGCGUGGCAAAGUGGCUGUGGCUAGACUGCCUCUCUGGAUUCCUCGUCACUCAGCAGGGCAUCUCUGAGAGAAAUGCC

Variants of: B1
Assay: self-cleavage, relative activity (ratio to wild type); higher = more cleavage; in vitro, sequencing; the parent is a self-cleaving ribozyme

| Variant | self-cleavage |
| --- | --- |
| UACGUAGGUGGUUUUCCCCUGAUAGUGCUAAGGGGGCCUGGAAGUUUGGACUGGGCAGAGCUCAACACAGCGUGGCAAAGUGGCUGAGGCUAGACUGCCUCUCUGGAUUCCUCGUCACUCAGCAGGGCAUCUCUGAGAGAAAUGUC | 0.1 |
| UACGUAGGUGGUUUUCCCCUGAUAGUGCUAAGGGGGCCUGGAAGUUUGGACUGGGCGGAGCUCAACACAGCGUGGCAAAGUGGCUGUGGCUAGACUGCCUCUCUAGAUUCCUCGUCACUCAGCAGGGCAUCUCUGAGAGAAAUGCC | 0.48 |
| UACGUAGGUGGUUUUCCCCUGAUAGGGCUAAGGGGGCCUGGAAGUUUGGACUGGGCAGAGCUCAACACAGCGUGGCAAAGUGGCUGUGGCUAGACUGCCUCUCUGGAUUCCUCGUCACUCAGCAGGGCAUCUCUGAGAGAAGUGCC | 1.28 |
| UACGUAGGUGGUUUUCCCCUGAUAGUGCUAAGGGGGCCUGGAAGUUUGGACUGGGCAGAGCUCAACACAGCGUGGCAAAGUGGCUGUGGCUAGACUGCCUCUCUGGAUUACUCGUCACUCAGCAGGGCAUCUCUGAGAGGAAUGCC | 1.44 |
| UACGUAGGUGGUUUUCCCCUGAUAGUGCUAAGGGGGCCUGGAAGUUUGGACUGGGCAGAGCUCAACACAGCGUGGCAAAACGGCUGUGGCUAGACUGCCUCUCUGGAUUCCUCGUCACUCAGCAGGGCAUCUCUGAGAGAAAUGCC | 1.98 |
| UACGUAGGUGGUUUUCCCCUGAUAGUGCUAAGGGGGCCUGGAAGUUUGGACUGGGCAGAGCUCAACACAGCGUGGCAAAGUGGCUGUGGCUAGACUGCCUCUCUGGAUUCCUCGUCACUCAGCAGGGCAUCUCUGAGAGAUAUGCC | 1.04 |
| UACGUAGGUGGUUUUCCCCUGAUAGUGCUAAGGGGGCCUGGAAGUUUGGACUGGGCAGAGCUCAACACAGCGUGGCAAAGUGCCUGUGGCUAGACUGCCUCUCUGGAUUCCUCGUCGCUCAGCAGGGCAUCUCUGAGAGAAAUGCC | 0.76 |
| UACGUAGGUGGUUUUCCCCUGAUAGUGUUAAGGGGGCCUGGACGUUUGGACUGGGCAGAGCUCAACACAGCGUGGCAAAGUGGCUGUGGCUAGACUGCCUCUCUGGAUUCCUCGUCACUCAGCAGGGCAUCUCUGAGAGAAAUGCC | 1.2 |
| UACGUAGGUGGUUUUCCCCUAAUAGUGCUAAGGGGGCCUGGAAGUUUGGACUGGGCAGAGCUCAACACAGCGUGGCAAAGUGGCUGUGGCUAGACUGCCUCUCUGGAUUCCUCAUCACUCAGCAGGGCAUCUCUGAGAGAAAUGCC | 2.07 |
| UACGUAGGUGGUUUUCCCCUGAUAGUGCUAAGGGGGCCUGGAAGUUUGGACUGGGCAGAGCUCAACACAGCGUGGCGAAGUGGCUGUGGCUAGACUGCCCCUCUGGAUUCCUCGUCACUCAGCAGGGCAUCUCUGAGAGAAAUGCC | 2.88 |
| UACGUGGGUGGUUUUCCCCUGAUAGUGCUAACGGGGCCUGGAAGUUUGGACUGGGCAGAGCUCAACACAGCGUGGCAAAGUGGCUGUGGCUAGACUGCCUCUCUGGAUUCCUCGUCACUCAGCAGGGCAUCUCUGAGAGAAAUGCC | 0.65 |
| UACGUAGGUGGUUUUCCCCUGAUAGUGCUAGGGGGGCCUGGAAGUUUGGACUGGGCAGAGCUCAACACAGCGUGGCAAAGUGGCUGUGGCUAGACUGCCUCUCUGGAUUCCUCGUCACUCAGCAGGGCAGCUCUGAGAGAAAUGCC | 1.84 |
| UACGUAGGUGGUUUUCCCCUGAUAGUGCUAAGGGGGCCUGGAAGUUUGGACUGGGCAGAGCUCCACACAGCGUGGCAAAGUGGCUGUGGCUAGACUGCCUCUCUGGGUUCCUCGUCACUCAGCAGGGCAUCUCUGAGAGAAAUGCC | 0.36 |
| UACGUAGGAGGUUUUCCCCUGAUAGUGCUAAGGGGGCCUGGAAGUUUGGAAUGGGCAGAGCUCAACACAGCGUGGCAAAGUGGCUGUGGCUAGACUGCCUCUCUGGAUUCCUCGUCACUCAGCAGGGCAUCUCUGAGAGAAAUGCC | 1.47 |
| UACGUAGGUGGUUUUCCCCUGAUAGUGCUAAGGGGGCCUGGAAGUUUGGACUGGGCAGGGCUCAACACAGCGUGGCAAAGUGGCUGUGGCUAGACUGCCUCUCUGAAUUCCUCGUCACUCAGCAGGGCAUCUCUGAGAGAAAUGCC | 0.06 |
| UACGUAGGUGGUUUUCCCCUGAUAGUGCUAAGGGGGCCUGGAAGUUUGGACUAGGCAGAGCUCAACACAGCGUGGCAAAGUGGCUGUGGCUAGACUGCCUCUCUGGAUUCCUCGUCACUCAGCGGGGCAUCUCUGAGAGAAAUGCC | 0.77 |
| UACGUAGGUGGUUUUCCCCUGAUAGUGCUAAGGGGGCCUGAAAGUUUGGACUGGGCAGAGCUCAACACAGCGUGGCAAAGUGGCUGUGGCUAGACUGCCUCUCUGGAUUCCUCGUCGCUCAGCAGGGCAUCUCUGAGAGAAAUGCC | 1.53 |
| UACGUAGGUGGUUUUCCCCUGAUAGUGCUAAGGGGGCCUGGAAGUUUGGACUGGGCAGAGCUCAACACAGCGUGGCAAAGUGGCUGUGGCUAGACUGCCUCUCCGGAUUCCUCGUCACGCAGCAGGGCAUCUCUGAGAGAAAUGCC | 0 |
| UACGUAGGUGGUUUUCCCCUGAUAGUGCUAACGGGGCCUGGAAGUUUGGACUGGGCAGAGCUCAACACAGCGUGGCAAAGUGGCUGAGGCUAGACUGCCUCUCUGGAUUCCUCGUCACUCAGCAGGGCAUCUCUGAGAGAAAUGCC | 0.06 |
| UACGUAGGUGGUUUUCCCCUGAUAGUGCUAAGGGGGCCUGGAAGUUUGGACUGGGCAGAGCUCGACACAGCGUGGCAAAGAGGCUGUGGCUAGACUGCCUCUCUGGAUUCCUCGUCACUCAGCAGGGCAUCUCUGAGAGAAAUGCC | 0.34 |

| Variant | self-cleavage |
| --- | --- |
| UACGUAGGUGGUUUUCCCCUGAUAGCGCUAAGGGGGCCUGGAAGUUUGGACUGGGCAGAGCUCAACACAGCGUGGCAAAGUGGCUGUGGCUAGACUGCCUCUCUGGAUUCCUCGUCACUCAGCAGGACAUCUCUGAGAGAAAUGCC | 1.37 |
| UACGUAGGUGGUUUUCCCCUGAUAGUGCUAAGGGGGCCUGGGAGUUUGGACUAGGCAGAGCUCAACACAGCGUGGCAAAGUGGCUGUGGCUAGACUGCCUCUCUGGAUUCCUCGUCACUCAGCAGGGCAUCUCUGAGAGAAAUGCC | 1.36 |
| UACGUAGGUGGUCUUCCCCUGAUAGUGCUAAGGGGGCCUGGAAGUUUGGACUGGGCAGAGCUCAACACAGCGUGGCAAAGUGGCUGUGGCUAGACUGCCUCUCUGGAUUCCUCGUCACCCAGCAGGGCAUCUCUGAGAGAAAUGCC | 1.54 |
| UACGUAGGUGGUUUUCCCCUGAUAGUGCUAAGGGGGCCUGGAAGUUUGGACUGGGUAGAGCUCAACACAGCGUGGCAAAGUGGCUGUGGCUAGACUGCCUCUCUGGAUUCCUCGUCACUCAGCAGGGCAUCUCGGAGAGAAAUGCC | 0.28 |
| UACGUAGGUGGUUUUCCCCUGAUAGUGCUAAGGGGGCCUGGAAGUUUGGACCGGGCAGAGCUCAACACAGCGUGGCAAAGUGGCUGUGGCUAGACUGCCUCUCUGGAUUCCUCGUCACACAGCAGGGCAUCUCUGAGAGAAAUGCC | 1.16 |
| UACGUAGGUGGUUUUCCCCUGAUAGUGCUAAGGGGGCCUGGAAGUUUGGACUGGGCAGAGCUCAACACAGCAUGGCAAAGUGGCUGUGGCUAGACUGCCUCUCUGGAUUCCUCGUCACUCAGCAGGGCAUCUCUGAGAGAGAUGCC | 1.54 |
| UACGUAGGUGGUUUUCCCCUGAUAGUGCUAAGGGGGCCUGGAAGUUUGGACUGGGCAGAGCUCAACACAGCGUGGCAAAGCGGCUGUGGCUAGACUGCCUCUCUGGAUUCCUCGGCACUCAGCAGGGCAUCUCUGAGAGAAAUGCC | 1.1 |
| UACGUAGGUGGUUAUCCCCUGAUAGUGCUAAGGGGGCCUGGAAGUUUGGACUGGGCAGAGCUCAACACAGCGUGGCAAAGUGGCUGUGGCUAGACUGCCUCUCUGGAUUCCUCGUCACUCAGCAGGGCAUCUCUGAGAGAGAUGCC | 1 |
| UACGUAGGUGGUUUUCCCCUGAUAGUGCUAAGGGGGCCUGGAAGUUUGGACAGGGCAGAGCUCAACACAGCGUGGCAAAGUGGCCGUGGCUAGACUGCCUCUCUGGAUUCCUCGUCACUCAGCAGGGCAUCUCUGAGAGAAAUGCC | 0.2 |
| UACGUAGGUGGUUUUCCCCUGAUAGUGCUAAGGGGGCCUGGAAGUUUGGACUGGGCAGAGCUCAACACAGCGCGGCAAAGUGGCUGUGGCUAGACUGCCUCUCUGGAUUCCUCGUCACUCAGCGGGGCAUCUCUGAGAGAAAUGCC | 0.64 |
| UACGUAGGUGGUCUUCCCCUGAUAGUGCUAAGGGGGCCUGGAAGUUUGGACUGGGCAGAGCUCAACACAGCGUGGCAAAGUGGCUGUGGCUAGACUGCCUCUCUGGAUUCCUCGUCACUCCGCAGGGCAUCUCUGAGAGAAAUGCC | 1.34 |
| UACGUAGGUGGUUUUCCCCUGAUAGUGCUAAGGGGGCCUGAAAGUUUGGACUGGGCAGAGCUCAACACAGCGUGGCAAAGUGGCUGUGGCUAGACUGCCUCUCUGGAUUCCUCGUCACUCAGCAGGGCAUCUCAGAGAGAAAUGCC | 0.89 |
| UACGUAGGUGGUUUUCCCCUGAUAGUGCUAAGGGGGCCUGGAAGUUUGGACUGGGCUGAGCUCAACACGGCGUGGCAAAGUGGCUGUGGCUAGACUGCCUCUCUGGAUUCCUCGUCACUCAGCAGGGCAUCUCUGAGAGAAAUGCC | 0.08 |
| UACGUAGGUGGUUUUCCCCUGAUAGUGCUAAGGGGGCCUGGAAGAUAGGACUGGGCAGAGCUCAACACAGCGUGGCAAAGUGGCUGUGGCUAGACUGCCUCUCUGGAUUCCUCGUCACUCAGCAGGGCAUCUCUGAGAGAAAUGCC | 1.17 |
| UACGUAGGUGGAUUUCCCCUGAUAGUGCUAAGGGGGCCUGGAAGUUUGGACUGGGCAGAGCUCAACACAGCGUGGCAAAGUGGCUGUGGCUAGACUGCCUCUCUGGAUUCCUCGUCACUCAGCAGGGCAUCUCUGAGAGUAAUGCC | 1.09 |
| UACGUAGGUGGUUUACCCCUGAUAGUGCUAAGGGGGCCUGGAAGUUUGGACUGGGCAGAGCUCAACACAGCGUGGCAAAGUGGCUGUGGCUAGACUGCCUCUCUGGAUUCCUCGUCACUCAGCAGGGCAUCUCUGAGAGAAAUGCC | 0.96 |
| UACGUAGGUGGUUUUCCCCUGAUAGUGCCAAGGGGGCCUGGAAGUUUGGACUGGGCAGAGCUCAACACAGCGUGGCAAAGUGGCUGUGGCUAGACUGCCUCUCUGGAUUCCUCGUCACUCAGCAGGGCAUCUCUGAGAGAAAAGCC | 1.17 |
| UACGUAGGUGGUUUUCCCCGGAUAGUGCCAAGGGGGCCUGGAAGUUUGGACUGGGCAGAGCUCAACACAGCGUGGCAAAGUGGCUGUGGCUAGACUGCCUCUCUGGAUUCCUCGUCACUCAGCAGGGCAUCUCUGAGAGAAAUGCC | 1.36 |
| UACGUAGGUGGUUUCCCCCUGAUAGUGCUAAGGGGGCCUGGAAGUUUGGACUGGGCAGAGCUCAACACAGCGUGGCAAAGGGGCUGUGGCUAGACUGCCUCUCUGGAUUCCUCGUCACUCAGCAGGGCAUCUCUGAGAGAAAUGCC | 1.89 |
